Read-outs that look alike come from different tables or passages of the source. Values belong to the binder of their own block, whether it stands above or below them.
Assays:
[1] = target: mouse CD3 (mouse CD36E [sic], Sino Biologicals Inc., Cat. No. CT033-M2508H) (mouse) (UniProt P22646); assay: SPR
[2] = target: T1, mouse IL23R (as used in the SPR of PRO387 and PRO386) (mouse, UniProt Q8K4B4 24-372, limits assumed); assay: SPR
T1 sequence (looked up): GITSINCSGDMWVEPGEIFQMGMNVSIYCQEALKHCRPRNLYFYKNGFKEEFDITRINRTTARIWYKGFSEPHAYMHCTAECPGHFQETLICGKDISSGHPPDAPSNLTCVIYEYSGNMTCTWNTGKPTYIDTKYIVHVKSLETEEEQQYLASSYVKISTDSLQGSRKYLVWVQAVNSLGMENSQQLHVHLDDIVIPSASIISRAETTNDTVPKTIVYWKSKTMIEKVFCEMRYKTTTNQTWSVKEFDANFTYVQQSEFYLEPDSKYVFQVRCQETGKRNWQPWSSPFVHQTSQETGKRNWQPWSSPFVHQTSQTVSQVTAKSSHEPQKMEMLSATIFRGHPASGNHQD

[3] = target: T2, recombinant human IL23R Fc chimera (R&D Systems, Cat. No. 1400-IR-050) (human, UniProt Q5VWK5 24-353); assay: SPR; IL23R Fc chimera captured by anti-human Fc, scFv injected
T2 construct: Bought reagent; not shown: Fc part (and any linker) of the bought chimera; captured by an anti-human IgG Fc antibody
T2 sequence (looked up): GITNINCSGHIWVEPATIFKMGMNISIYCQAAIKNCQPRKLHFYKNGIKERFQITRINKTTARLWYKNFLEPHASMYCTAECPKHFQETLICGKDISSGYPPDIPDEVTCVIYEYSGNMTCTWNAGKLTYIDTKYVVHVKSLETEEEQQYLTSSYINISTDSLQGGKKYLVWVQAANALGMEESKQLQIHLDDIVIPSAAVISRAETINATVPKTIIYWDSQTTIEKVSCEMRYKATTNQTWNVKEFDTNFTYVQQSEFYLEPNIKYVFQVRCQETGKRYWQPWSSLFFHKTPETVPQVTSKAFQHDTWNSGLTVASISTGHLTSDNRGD
Experimental: (§1) Binding affinities of anti-IL23R scFvs were measured by surface plasmon resonance (SPR) using a MASS-1 SPR instrument (Sierra Sensors). […] After immobilization, 1 ug/ml recombinant human IL23R Fc chimera (R&D Systems, Cat. No. 1400-IR-050) was captured by the anti-human IgG antibody while a second immobilized channel served as a control where the capture was replaced by buffer. Two-fold serial dilutions of human scFvs ranging from 180 to 2.81 nM were injected into both flow cells for 3 min and dissociation of the scFvs from the chimera on the sensor chip was allowed to proceed for 700 sec. After each injection cycle, surfaces were regenerated with two 1 min injections of 10 mM glycine-HCI pH 1.5. In a similar manner the affinities for cynomolgus and mouse IL23R Fc chimera (R&D Systems, Cat. No. 1686-MR-050) was measured. The apparent dissociation (kd) and association (ka) rate constants and the apparent dissociation equilibrium constant (KD) were calculated with the MASS-1 analysis software (Analyzer, Sierra Sensors) using one-to-one Langmuir binding model.

[4] = target: T3, cynomolgus IL23R Fc chimera (cynomolgus monkey, UniProt G7NWY5 24-353); assay: as above
T3 construct: Named only in the method sentence 'cynomolgus and mouse IL23R Fc chimera'; also called cyno IL23R; not shown: Fc part of the chimera
T3 sequence: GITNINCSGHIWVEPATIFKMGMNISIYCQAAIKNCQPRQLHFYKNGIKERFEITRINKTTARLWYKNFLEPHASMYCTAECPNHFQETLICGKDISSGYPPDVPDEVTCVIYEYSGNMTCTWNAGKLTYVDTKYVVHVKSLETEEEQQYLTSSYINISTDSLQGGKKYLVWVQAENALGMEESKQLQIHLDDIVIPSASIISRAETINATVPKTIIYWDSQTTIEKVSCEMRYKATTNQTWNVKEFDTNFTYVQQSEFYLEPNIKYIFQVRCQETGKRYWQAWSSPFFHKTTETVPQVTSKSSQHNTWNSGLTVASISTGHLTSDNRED
Experimental: as §1

[5] = target: T4, mouse IL23R Fc chimera (R&D Systems, Cat. No. 1686-MR-050) (mouse, UniProt Q8K4B4 24-372); assay: as above
T4 construct: Bought reagent; Fc part of the bought chimera not given
T4 sequence (looked up): T1 sequence (looked up)
Experimental: as §1

[6] = target: T1, mouse IL23R (as used in the SPR of …); assay: SPR; remark: listed apart in the source
[7] = target: mouse CD3 (mouse CD36E [sic], Sino Biologicals Inc., Cat. No. CT033-M2508H) (mouse) (UniProt P22646); assay: SPR; remark: listed apart in the source

mouse CD3 (mouse CD36E [sic], Sino Biologicals Inc., Cat. No. CT033-M2508H) (mouse), sequence (P22646 22-108, chain 1 of 2): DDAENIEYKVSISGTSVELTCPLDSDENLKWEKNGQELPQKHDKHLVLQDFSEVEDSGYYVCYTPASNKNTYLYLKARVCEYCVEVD
mouse CD3 (mouse CD36E [sic], Sino Biologicals Inc., Cat. No. CT033-M2508H) (mouse), sequence (P04235 22-105, chain 2 of 2, further chain): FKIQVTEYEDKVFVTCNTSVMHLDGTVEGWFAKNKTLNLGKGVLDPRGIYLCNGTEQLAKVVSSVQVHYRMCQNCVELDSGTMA

Kd [1]: 11.4 nM
koff [1]: 0.00266 s⁻¹
kon [1]: 233000 M⁻¹ s⁻¹
B2: PRO400 (Fab, V domains shown)
VH: EVQLVESGGGLVQPGKSLKLSCEASGFTFSGYGMHWVRQAPGRGLESVAYITSSSINIKYADAVKGRFTVSRDNAKNLLFLQMNILKSEDTAMYYCARFDWDKNYWGQGTMVTVSS
VL: DIQMTQSPSSLPASLGDRVTINCQASQDISNYLNWYQQKPGKAPKLLIYYTNKLADGVPSRFSGSGSGRDSSFTISSLESEDIGSYYCQQYYNYPWTFGPGTKLEIKR

Kd [6]: 0.583 nM
koff [6]: 0.000533 s⁻¹
kon [6]: 915000 M⁻¹ s⁻¹
Kd [7]: 11.5 nM
koff [7]: 0.00196 s⁻¹
kon [7]: 171000 M⁻¹ s⁻¹
B4: PRO386 (bispecific antibody)
light: DIQMTQSPSSLPASLGDRVTINCQASQDISNYLNWYQQKPGKAPKLLIYYTNKLADGVPSRFSGSGSGRDSSFTISSLESEDIGSYYCQQYYNYPWTFGPGTKLEIKRRTVAAPSVFIFPPSDEQLKSGTASVVCLLNNFYPREAKVQWKVDNALQSGNSQESVTEQDSKDSTYSLSSTLTLSKADYEKHKVYACEVTHQGLSSPVTKSFNRGECGGGGSGGGGSHMDIQMTQSPSSLSASVGDRVTITCQASENIYSFLAWYQQKPGKAPKLLIYSASKLAAGVPSRFSGSGSGTDFTLTISSLQPEDFATYYCQQTNRYSNPDIYNVFGQGTKLTVLGGGGGSGGGGSGGGGSGGGGSEVQLVESGGGLVQPGGSLRLSCAASGIDFNSNYYMCWVRQAPGKGLEWIGCIYVGSHVNTYYANWAKGRFTISRDNSKNTVYLQMNSLRAEDTAVYYCATSGSSVLYFKFWGQGTLVTVSS
heavy: EVQLVESGGGLVQPGKSLKLSCEASGFTFSGYGMHWVRQAPGRGLESVAYITSSSINIKYADAVKGRFTVSRDNAKNLLFLQMNILKSEDTAMYYCARFDWDKNYWGQGTMVTVSSASTKGPSVFPLAPSSKSTSGGTAALGCLVKDYFPEPVTVSWNSGALTSGVHTFPAVLQSSGLYSLSSVVTVPSSSLGTQTYICNVNHKPSNTKVDKKVEPKSCGGGGSGGGGSHMDIQMTQSPSSLSASVGDRVTITCQASENIYSFLAWYQQKPGKAPKLLIYSASKLAAGVPSRFSGSGSGTDFTLTISSLQPEDFATYYCQQTNRYSNPDIYNVFGQGTKLTVLGGGGGSGGGGSGGGGSGGGGSEVQLVESGGGLVQPGGSLRLSCAASGIDFNSNYYMCWVRQAPGKGLEWIGCIYVGSHVNTYYANWAKGRFTISRDNSKNTVYLQMNSLRAEDTAVYYCATSGSSVLYFKFWGQGTLVTVSS
notes: Heterodimer; bispecific and trivalent (one anti-CD3 Fab, two anti-IL23R scFvs); also called PRO386 (Tribody); Fab-scFv fusion surrogate

Continued, binder first:

B1: PRO387 (bispecific antibody)
chain: DIQMTQSPSSLSASVGDRVTITCQASENIYSFLAWYQQKPGKAPKLLIYSASKLAAGVPSRFSGSGSGTDFTLTISSLQPEDFATYYCQQTNRYSNPDIYNVFGQGTKLTVLGGGGGSEVQLVESGGGLVQPGKSLKLSCEASGFTFSGYGMHWVRQAPGRGLESVAYITSSSINIKYADAVKGRFTVSRDNAKNLLFLQMNILKSEDTAMYYCARFDWDKNYWGQGTMVTVSSGGGGSGGGGSGGGGSGGGGSDIQMTQSPSSLPASLGDRVTINCQASQDISNYLNWYQQKPGKAPKLLIYYTNKLADGVPSRFSGSGSGRDSSFTISSLESEDIGSYYCQQYYNYPWTFGPGTKLEIKRGGGGSEVQLVESGGGLVQPGGSLRLSCAASGIDFNSNYYMCWVRQAPGKGLEWIGCIYVGSHVNTYYANWAKGRFTISRDNSKNTVYLQMNSLRAEDTAVYYCATSGSSVLYFKFWGQGTLVTVSS
notes: also called PRO387 (scDb); surrogate scDb
Kd [1]: 9.11 nM
koff [1]: 0.00213 s⁻¹
kon [1]: 233000 M⁻¹ s⁻¹
Kd [2]: 4.66 nM
koff [2]: 0.00326 s⁻¹
kon [2]: 701000 M⁻¹ s⁻¹

B3: 14-11-D07-sc01 (scFv)
scFv: DIQMTQSPSSLSASVGDRVTITCQASENIYSFLAWYQQKPGKAPKLLIYSASKLAAGVPSRFSGSGSGTDFTLTISSLQPEDFATYYCQQTNRYSNPDIYNVFGQGTKLTVLGGGGGSGGGGSGGGGSGGGGSEVQLVESGGGLVQPGGSLRLSCAASGIDFNSNYYMCWVRQAPGKGLEWIGCIYVGSHVNTYYANWAKGRFTISRDNSKNTVYLQMNSLRAEDTAVYYCATSGSSVLYFKFWGQGTLVTVSS
notes: Humanized scFv (CDR graft on a VK1/VH3 framework); also called anti-IL23R scFv 14-11-D07-sc01
Kd [3]: 0.116 nM
koff [3]: 0.000259 s⁻¹
kon [3]: 2.24e+06 M⁻¹ s⁻¹
Kd [4]: 0.124 nM
koff [4]: 0.000361 s⁻¹
kon [4]: 2.92e+06 M⁻¹ s⁻¹
Kd [5]: 2.21 nM
koff [5]: 0.00418 s⁻¹
kon [5]: 1.89e+06 M⁻¹ s⁻¹
